Blank lines part the entries; values can stand above or below the sequence they belong to.
Key:
HLA-B*51:01 [1] = test: IEDB peptide-MHC binding, purified MHC/competitive/fluorescence; ≥ and ≤ were set here for values at or beyond the usual limits of such assays; conditions: source organism: Homo sapiens
HLA-B*58:01 [2] = test: as above; conditions: source organism: Homo sapiens
HLA-B*07:02 [3] = test: IEDB peptide-MHC binding, purified MHC/competitive/fluorescence; filed as Kd, often an IC50 or EC50 that approximates it; ≥ and ≤ were set here for values at or beyond the usual limits of such assays; conditions: source organism: Escherichia coli 536
HLA-B*08:01 = test: as above; conditions: source organism: Escherichia coli 536
HLA-B*15:01 [4] = test: as above; conditions: source organism: Escherichia coli 536
HLA-B*51:01 [5] = test: as above; conditions: source organism: Escherichia coli 536
HLA-A*01:01 = test: IEDB peptide-MHC binding, purified MHC/direct/fluorescence; filed as Kd, often an IC50 or EC50 that approximates it; ≥ and ≤ were set here for values at or beyond the usual limits of such assays; conditions: source organism: Camelpox virus CMS
HLA-A*03:01 = test: as above; conditions: source organism: Camelpox virus CMS
HLA-A*11:01 = test: as above; conditions: source organism: Camelpox virus CMS
HLA-A*31:01 = test: as above; conditions: source organism: Camelpox virus CMS
HLA-A*69:01 = test: as above; conditions: source organism: Camelpox virus CMS
HLA-B*07:02 [6] = test: as above; conditions: source organism: Camelpox virus CMS
HLA-B*15:01 [7] = test: as above; conditions: source organism: Camelpox virus CMS
HLA-B*18:01 = test: as above; conditions: source organism: Camelpox virus CMS
HLA-B*27:05 = test: as above; conditions: source organism: Camelpox virus CMS
HLA-B*40:01 = test: as above; conditions: source organism: Camelpox virus CMS
HLA-B*46:01 = test: as above; conditions: source organism: Camelpox virus CMS
HLA-B*48:01 = test: as above; conditions: source organism: Camelpox virus CMS
HLA-B*57:01 = test: as above; conditions: source organism: Camelpox virus CMS
HLA-B*58:01 [8] = test: as above; conditions: source organism: Camelpox virus CMS
HLA-A*02:01 = test: IEDB peptide-MHC binding, purified MHC/competitive/fluorescence; filed as Kd, often an IC50 or EC50 that approximates it; ≥ and ≤ were set here for values at or beyond the usual limits of such assays; conditions: source organism: Variola virus
HLA-A*26:03 = test: as above; conditions: source organism: Variola virus
HLA-A*68:02 = test: as above; conditions: source organism: Variola virus
HLA-B*15:17 = test: as above; conditions: source organism: Variola virus

IC50 (HLA-B*51:01 [1]): 1.52 µM
IC50 (HLA-B*58:01 [2]): 0.987 µM
Sequence: MASSPTSI

Kd (HLA-B*07:02 [3]): 0.0512 µM
Kd (HLA-B*08:01): ≥ 20 µM
Kd (HLA-B*15:01 [4]): ≥ 20 µM
Kd (HLA-B*51:01 [5]): 3.66 µM
Sequence: SPLHVFVAV

Sequence: RVFDKADGK
Kd (HLA-A*01:01): ≥ 20 µM
Kd (HLA-A*03:01): 0.0788 µM
Kd (HLA-A*11:01): 0.127 µM
Kd (HLA-A*31:01): 0.0997 µM
Kd (HLA-A*69:01): ≥ 20 µM
Kd (HLA-B*07:02 [6]): ≥ 20 µM
Kd (HLA-B*15:01 [7]): ≥ 20 µM
Kd (HLA-B*18:01): ≥ 20 µM
Kd (HLA-B*27:05): ≥ 20 µM
Kd (HLA-B*40:01): ≥ 20 µM
Kd (HLA-B*46:01): ≥ 20 µM
Kd (HLA-B*48:01): ≥ 20 µM
Kd (HLA-B*57:01): ≥ 20 µM
Kd (HLA-B*58:01 [8]): ≥ 20 µM
Kd (HLA-A*02:01): 1.05 µM
Kd (HLA-A*26:03): ≥ 20 µM
Kd (HLA-A*68:02): ≥ 20 µM
Kd (HLA-B*15:17): ≥ 20 µM

— the Immune Epitope Database (IEDB)
